Changes are numbered by the printed parent chain. Names and notes keep the numbering of the source.
B1: IgG1-F484 (antibody)
heavy: QVQLQESGPGLVKPSETLSLTCAVSGHSISHDHAWSWVRQPPGEGLEWIGFISYSGITNYNPSLQGRVTISRDNSKNTLYLQMNSLRAEDTAVYYCARSLARTTAMDYWGEGTLVTVSSASTKGPSVFPLAPSSKSTSGGTAALGCLVKDYFPEPVTVSWNSGALTSGVHTFPAVLQSSGLYSLSSVVTVPSSSLGTQTYICNVNHKPSNTKVDKKVEPKSCDKTHTCPPCPAPELLGGPSVFLFPPKPKDTLMISRTVEVTCVVVDVSHEDPEVKFNWYVDGVEVHNAKTKPREEQYNSTYRVVSALQVLHQDWLNGKEYKCKVSNKALPAPIEKTISKAKGQPREPQVYTLPPSRDELTKNQVSLTCLVKGFYPSDIAVEWESNGQPENNYKTTPPVLDSDGSFFLYSKLTVDKSRWQQGNVFSCSVMHEALHYHYTQKSLSLSP
light: not shown
notes: EU numbering; copies: 2 + 2
B2: IgG1-F485 (antibody)
heavy: B1 heavy with N288E, A307V, Q309A
light: not shown
notes: EU numbering; copies: 2 + 2
B3: IgG1-F486 (antibody)
heavy: B1 heavy with A307V, L311R, Q313H, M430L
light: not shown
notes: EU numbering; copies: 2 + 2
B4: IgG1-F488 (antibody)
heavy: B1 heavy with A307V, Q309T, V310P, N327G, M430L
light: not shown
notes: EU numbering; copies: 2 + 2
B5: IgG1-F490 (antibody)
heavy: B1 heavy with S241K, A307V, Q309T, V310P, Q313H, M430L
light: not shown
notes: EU numbering; copies: 2 + 2
B6: IgG1-F493 (antibody)
heavy: B1 heavy with S241K, V259P, D272F, A307V, Q309P, N327G, M430Y
light: not shown
notes: EU numbering; copies: 2 + 2
B7: IgG1-F497 (antibody)
heavy: B1 heavy with V259T, A307V, Q309A, M430V
light: not shown
notes: EU numbering; 'N428V' as printed, probably M428V; copies: 2 + 2
B8: IgG1-F498 (antibody)
heavy: B1 heavy with V259A, A307V, Q309T, M430V
light: not shown
notes: as for B7
B9: IgG1-F499 (antibody)
heavy: B1 heavy with V259A, A307V, Q309A, M430V
light: not shown
notes: EU numbering; copies: 2 + 2
B10: IgG1-F500 (antibody)
heavy: B1 heavy with V259S, A307V, M430L
light: not shown
notes: EU numbering; copies: 2 + 2
B11: IgG1-F506 (antibody)
heavy: B1 heavy with N299A, A307V, M430L
light: not shown
notes: EU numbering; copies: 2 + 2
B12: IgG1-F507 (antibody)
heavy: B1 heavy with N288A, A307V, M430L
light: not shown
notes: EU numbering; copies: 2 + 2
B13: IgG1-F508 (antibody)
heavy: B1 heavy with A307V, N317A, M430L
light: not shown
notes: EU numbering; copies: 2 + 2
B14: IgG1-F509 (antibody)
heavy: B1 heavy with A307V, N386A, M430L
light: not shown
notes: EU numbering; copies: 2 + 2
B15: IgG1-F510 (antibody)
heavy: B1 heavy with A307V, N391A, M430L
light: not shown
notes: EU numbering; copies: 2 + 2
B16: IgG1-F517 (antibody)
heavy: B1 heavy with N288E, A307V, Q309T
light: not shown
notes: EU numbering; copies: 2 + 2
B17: IgG1-F518 (antibody)
heavy: B1 heavy with V259T, N288E, A307V, Q309T
light: not shown
notes: EU numbering; copies: 2 + 2
B18: IgG1-F519 (antibody)
heavy: B1 heavy with N288E, A307V
light: not shown
notes: EU numbering; copies: 2 + 2
B19: IgG1-F521 (antibody)
heavy: B1 heavy with N288E, A307V, M430Y
light: not shown
notes: EU numbering; copies: 2 + 2
B20: IgG1-F523 (antibody)
heavy: B1 heavy with M430Y
light: not shown
notes: EU numbering; copies: 2 + 2
B21: IgG1-F526 (antibody)
heavy: B1 heavy with V259T, A307V, M430Y
light: not shown
notes: EU numbering; copies: 2 + 2
B22: IgG1-F533 (antibody)
heavy: B1 heavy with V259A, N288E, A307V, M430F
light: not shown
notes: EU numbering; copies: 2 + 2

Target: T1, human FcRn (soluble human FcRn complexed with β2-microglobulin) (human, UniProt P61769 21-119, limits assumed)
T1 construct: also called hFcRn
T1 sequence (chain, as listed by the source limits assumed, chain 1 of 2): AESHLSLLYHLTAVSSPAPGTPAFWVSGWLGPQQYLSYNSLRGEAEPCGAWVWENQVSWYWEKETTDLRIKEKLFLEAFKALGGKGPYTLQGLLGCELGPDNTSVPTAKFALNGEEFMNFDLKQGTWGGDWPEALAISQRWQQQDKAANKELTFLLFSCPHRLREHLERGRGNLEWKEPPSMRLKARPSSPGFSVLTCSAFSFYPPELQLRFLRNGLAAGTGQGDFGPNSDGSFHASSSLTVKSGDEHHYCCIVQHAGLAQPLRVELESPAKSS
T1 sequence (P61769 21-119 limits assumed, chain 2 of 2): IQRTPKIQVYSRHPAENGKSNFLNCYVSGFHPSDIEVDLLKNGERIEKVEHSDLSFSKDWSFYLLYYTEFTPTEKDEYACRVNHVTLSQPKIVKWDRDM
Experiment: SPR, pH 7.0;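 note: antibodies captured on a Protein L sensor chip with human FcRn injected as analyte, KD calculated from fitted association and dissociation rate constants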

Row | Binder | Kd
1 | B1 | 62 nM
2 | B2 | 97 nM
3 | B3 | 340 nM
4 | B4 | 35 nM
5 | B5 | 75 nM
6 | B6 | 490 nM
7 | B7 | 3100 nM
8 | B8 | 1300 nM
9 | B9 | 520 nM
10 | B10 | 43 nM
11 | B11 | 190 nM
12 | B12 | 51 nM
13 | B13 | 110 nM
14 | B14 | 58 nM
15 | B15 | 53 nM
16 | B16 | 310 nM
17 | B17 | 420 nM
18 | B18 | 26 nM
19 | B19 | 11 nM
20 | B20 | 26 nM
21 | B21 | 19 nM
22 | B22 | 12 nM

From patent US20200199241A1 (Chugai, published 2020)
